Publication PMC9482650, “Quantitative fragmentomics allow affinity mapping of interactomes” (Nature Communications, 2022)

B1: CYSLTR2, Q9NS75 (peptide)
chain: SVWLRKETRV

molecular target: T1, CNKSR1, Q969H4; assay: holdup assay; set-up: key: below the threshold = too weak to quantify, mostly under pKd 3.1 to 4; details: plain residues with an end cap or a label only (N-terminal biotin on a linker: ttds)
T1 sequence (Q969H4 191-295, limits assumed, looked up): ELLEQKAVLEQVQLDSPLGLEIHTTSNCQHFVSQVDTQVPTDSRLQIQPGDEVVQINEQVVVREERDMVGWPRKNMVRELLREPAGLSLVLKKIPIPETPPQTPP

Binder	pKd
B1	below the threshold

molecular target: GIPC3, Q8TF64; assay: holdup assay; set-up: key: below the threshold = too weak to quantify, mostly under pKd 3.1 to 4; details: plain residues with an end cap or a label only (N-terminal biotin on a linker: ttds)
Sequence (Q8TF64 107-202): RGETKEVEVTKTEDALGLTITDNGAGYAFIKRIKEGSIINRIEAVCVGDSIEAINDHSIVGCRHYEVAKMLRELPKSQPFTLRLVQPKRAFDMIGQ

Binder	pKd
B1	below the threshold

molecular target: IL16_2, Q14005; assay: holdup assay; set-up: key: below the threshold = too weak to quantify, mostly under pKd 3.1 to 4; details: plain residues with an end cap or a label only (N-terminal biotin on a linker: ttds)
Sequence (Q14005 350-450): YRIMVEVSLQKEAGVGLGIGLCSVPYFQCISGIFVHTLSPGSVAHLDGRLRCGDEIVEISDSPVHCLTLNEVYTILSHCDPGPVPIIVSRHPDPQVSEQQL

Binder	pKd
B1	below the threshold

molecular target: T2, INTU, Q9ULD6; assay: holdup assay; set-up: key: below the threshold = too weak to quantify, mostly under pKd 3.1 to 4; details: plain residues with an end cap or a label only (N-terminal biotin on a linker: ttds)
T2 sequence (Q9ULD6 180-273, limits assumed, looked up): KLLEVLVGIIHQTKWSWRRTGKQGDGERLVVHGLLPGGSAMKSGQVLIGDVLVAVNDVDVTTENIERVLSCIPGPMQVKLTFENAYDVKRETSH

Binder	pKd
B1	below the threshold

molecular target: T3, LNX2_4, Q8N448; assay: holdup assay; set-up: key: below the threshold = too weak to quantify, mostly under pKd 3.1 to 4; details: plain residues with an end cap or a label only (N-terminal biotin on a linker: ttds)
T3 sequence (Q8N448 595-690, limits assumed, looked up): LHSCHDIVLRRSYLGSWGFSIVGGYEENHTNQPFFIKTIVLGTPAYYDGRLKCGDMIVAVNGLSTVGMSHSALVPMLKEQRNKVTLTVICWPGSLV

Binder	pKd
B1	below the threshold

molecular target: MAGI1_3, Q96QZ7; assay: holdup assay; set-up: key: below the threshold = too weak to quantify, mostly under pKd 3.1 to 4; details: plain residues with an end cap or a label only (N-terminal biotin on a linker: ttds)
Sequence (Q96QZ7 638-725): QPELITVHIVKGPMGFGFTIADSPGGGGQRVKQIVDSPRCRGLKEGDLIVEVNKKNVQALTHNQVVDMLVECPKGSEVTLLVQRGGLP

Binder	pKd
B1	5.09

molecular target: T4, MAGI2_1, Q86UL8; assay: holdup assay; set-up: key: below the threshold = too weak to quantify, mostly under pKd 3.1 to 4; details: plain residues with an end cap or a label only (N-terminal biotin on a linker: ttds)
T4 sequence (Q86UL8 12-111, limits assumed, looked up): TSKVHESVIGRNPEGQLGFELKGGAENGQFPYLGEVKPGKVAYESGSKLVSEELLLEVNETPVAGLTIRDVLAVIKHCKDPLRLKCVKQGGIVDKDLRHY

Binder	pKd
B1	below the threshold

molecular target: MAGI3_4, Q5TCQ9; assay: holdup assay; set-up: key: below the threshold = too weak to quantify, mostly under pKd 3.1 to 4; details: plain residues with an end cap or a label only (N-terminal biotin on a linker: ttds)
Sequence (Q5TCQ9 716-815): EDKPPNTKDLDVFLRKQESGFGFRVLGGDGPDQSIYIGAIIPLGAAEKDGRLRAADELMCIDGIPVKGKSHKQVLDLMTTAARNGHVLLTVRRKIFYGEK

Binder	pKd
B1	below the threshold

molecular target: T5, MLLT4, P55196; assay: holdup assay; set-up: key: below the threshold = too weak to quantify, mostly under pKd 3.1 to 4; details: plain residues with an end cap or a label only (N-terminal biotin on a linker: ttds)
T5 sequence (P55196 1002-1103, limits assumed, looked up): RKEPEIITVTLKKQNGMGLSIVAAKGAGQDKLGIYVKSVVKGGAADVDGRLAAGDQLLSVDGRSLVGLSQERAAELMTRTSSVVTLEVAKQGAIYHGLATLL

Binder	pKd
B1	below the threshold

molecular target: T6, MPDZ_11, O75970; assay: holdup assay; set-up: key: below the threshold = too weak to quantify, mostly under pKd 3.1 to 4; details: plain residues with an end cap or a label only (N-terminal biotin on a linker: ttds)
T6 sequence (O75970 1720-1817, limits assumed, looked up): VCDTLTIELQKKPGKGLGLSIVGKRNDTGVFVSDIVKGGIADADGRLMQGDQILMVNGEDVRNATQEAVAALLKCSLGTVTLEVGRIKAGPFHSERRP

Binder	pKd
B1	below the threshold

molecular target: PARD3B_2, Q8TEW8; assay: holdup assay; set-up: key: below the threshold = too weak to quantify, mostly under pKd 3.1 to 4; details: plain residues with an end cap or a label only (N-terminal biotin on a linker: ttds)
Sequence (Q8TEW8 376-471): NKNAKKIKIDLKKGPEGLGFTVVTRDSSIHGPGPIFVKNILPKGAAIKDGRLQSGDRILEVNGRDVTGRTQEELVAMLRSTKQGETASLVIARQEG

Binder	pKd
B1	below the threshold

molecular target: PARD3B_3, Q8TEW8; assay: holdup assay; set-up: key: below the threshold = too weak to quantify, mostly under pKd 3.1 to 4; details: plain residues with an end cap or a label only (N-terminal biotin on a linker: ttds)
Sequence (Q8TEW8 490-594): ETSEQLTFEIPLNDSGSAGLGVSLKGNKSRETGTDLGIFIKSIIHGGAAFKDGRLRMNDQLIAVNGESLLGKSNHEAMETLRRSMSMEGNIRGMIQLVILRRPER

Binder	pKd
B1	below the threshold

molecular target: PARD3_1, Q8TEW0; assay: holdup assay; set-up: key: below the threshold = too weak to quantify, mostly under pKd 3.1 to 4; details: plain residues with an end cap or a label only (N-terminal biotin on a linker: ttds)
Sequence (Q8TEW0 264-372): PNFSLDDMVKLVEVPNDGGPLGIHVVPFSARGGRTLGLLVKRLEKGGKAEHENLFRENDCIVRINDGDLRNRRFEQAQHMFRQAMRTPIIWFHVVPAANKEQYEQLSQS

Binder	pKd
B1	below the threshold

molecular target: T7, PDZD2_3, O15018; assay: holdup assay; set-up: key: below the threshold = too weak to quantify, mostly under pKd 3.1 to 4; details: plain residues with an end cap or a label only (N-terminal biotin on a linker: ttds)
T7 sequence (O15018 581-682, limits assumed, looked up): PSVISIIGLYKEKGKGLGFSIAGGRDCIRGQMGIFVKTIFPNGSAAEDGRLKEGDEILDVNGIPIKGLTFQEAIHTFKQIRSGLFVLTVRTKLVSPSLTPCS

Binder	pKd
B1	below the threshold

molecular target: T8, PDZRN3_2, Q9UPQ7; assay: holdup assay; set-up: key: below the threshold = too weak to quantify, mostly under pKd 3.1 to 4; details: plain residues with an end cap or a label only (N-terminal biotin on a linker: ttds)
T8 sequence (Q9UPQ7 414-513, limits assumed, looked up): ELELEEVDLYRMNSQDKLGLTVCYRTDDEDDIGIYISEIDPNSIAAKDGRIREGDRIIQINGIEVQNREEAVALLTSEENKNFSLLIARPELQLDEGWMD

Binder	pKd
B1	below the threshold

molecular target: T9, PTPN4, P29074; assay: holdup assay; set-up: key: below the threshold = too weak to quantify, mostly under pKd 3.1 to 4; details: plain residues with an end cap or a label only (N-terminal biotin on a linker: ttds)
T9 sequence (P29074 512-599, limits assumed, looked up): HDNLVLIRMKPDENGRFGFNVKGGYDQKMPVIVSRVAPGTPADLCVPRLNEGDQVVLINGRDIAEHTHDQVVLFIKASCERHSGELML

Binder	pKd
B1	4.52

molecular target: RIMS1, Q86UR5; assay: holdup assay; set-up: key: below the threshold = too weak to quantify, mostly under pKd 3.1 to 4; details: plain residues with an end cap or a label only (N-terminal biotin on a linker: ttds)
Sequence (Q86UR5 584-692): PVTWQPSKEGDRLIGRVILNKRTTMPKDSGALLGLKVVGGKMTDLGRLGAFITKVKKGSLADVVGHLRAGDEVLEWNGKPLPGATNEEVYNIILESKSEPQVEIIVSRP

Binder	pKd
B1	below the threshold

molecular target: SCRIB_4, Q14160; assay: holdup assay; set-up: key: below the threshold = too weak to quantify, mostly under pKd 3.1 to 4; details: plain residues with an end cap or a label only (N-terminal biotin on a linker: ttds)
Sequence (Q14160 1095-1204): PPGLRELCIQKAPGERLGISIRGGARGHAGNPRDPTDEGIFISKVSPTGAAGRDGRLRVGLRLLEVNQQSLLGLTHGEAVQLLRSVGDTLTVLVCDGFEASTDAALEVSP

Binder	pKd
B1	4.91

molecular target: T10, SHANK2, Q9UPX8; assay: holdup assay; set-up: key: below the threshold = too weak to quantify, mostly under pKd 3.1 to 4; details: plain residues with an end cap or a label only (N-terminal biotin on a linker: ttds)
T10 sequence (Q9UPX8 621-730, limits assumed, looked up): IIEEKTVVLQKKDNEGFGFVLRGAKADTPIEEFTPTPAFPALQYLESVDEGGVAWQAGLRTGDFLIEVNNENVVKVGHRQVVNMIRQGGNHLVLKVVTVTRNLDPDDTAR

Binder	pKd
B1	below the threshold

molecular target: T11, SHROOM2, Q13796; assay: holdup assay; set-up: key: below the threshold = too weak to quantify, mostly under pKd 3.1 to 4; details: plain residues with an end cap or a label only (N-terminal biotin on a linker: ttds)
T11 sequence (Q13796 21-118, limits assumed, looked up): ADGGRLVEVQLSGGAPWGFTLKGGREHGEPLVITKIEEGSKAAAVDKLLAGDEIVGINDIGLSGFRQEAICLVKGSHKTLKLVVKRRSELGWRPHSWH

Binder	pKd
B1	4.35

molecular target: T12, SHROOM4, Q9ULL8; assay: holdup assay; set-up: key: below the threshold = too weak to quantify, mostly under pKd 3.1 to 4; details: plain residues with an end cap or a label only (N-terminal biotin on a linker: ttds)
T12 sequence (Q9ULL8 5-102, limits assumed, looked up): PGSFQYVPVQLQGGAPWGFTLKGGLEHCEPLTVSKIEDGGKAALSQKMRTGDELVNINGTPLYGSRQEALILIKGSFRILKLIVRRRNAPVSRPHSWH

Binder	pKd
B1	below the threshold

molecular target: T13, TJP3_1, O95049; assay: holdup assay; set-up: key: below the threshold = too weak to quantify, mostly under pKd 3.1 to 4; details: plain residues with an end cap or a label only (N-terminal biotin on a linker: ttds)
T13 sequence (O95049 6-103, limits assumed, looked up): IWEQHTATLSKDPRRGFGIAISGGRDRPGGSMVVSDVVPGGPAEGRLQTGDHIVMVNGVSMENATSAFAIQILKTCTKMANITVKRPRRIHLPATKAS

Binder	pKd
B1	below the threshold

molecular target: T14, USH1C_1, Q9Y6N9; assay: holdup assay; set-up: key: below the threshold = too weak to quantify, mostly under pKd 3.1 to 4; details: plain residues with an end cap or a label only (N-terminal biotin on a linker: ttds)
T14 sequence (Q9Y6N9 82-179, limits assumed, looked up): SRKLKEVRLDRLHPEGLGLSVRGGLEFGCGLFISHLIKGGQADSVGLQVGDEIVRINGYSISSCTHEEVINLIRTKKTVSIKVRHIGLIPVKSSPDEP

Binder	pKd
B1	below the threshold
